Measured values: PMC13038214, “TNFSF13 insufficiency disrupts human colonic epithelial cell growth and associated B cell dynamics” (The Journal of Clinical Investigation, 2026)

T1: FAS ligand (FASL) used as analyte in SPR (human, UniProt P48023 103-281)
T1 construct: FAS ligand (FASL), the protein flowed over immobilised FAS in SPR as positive control; also called rFASL; recombinant human FAS ligand
T1 sequence (looked up): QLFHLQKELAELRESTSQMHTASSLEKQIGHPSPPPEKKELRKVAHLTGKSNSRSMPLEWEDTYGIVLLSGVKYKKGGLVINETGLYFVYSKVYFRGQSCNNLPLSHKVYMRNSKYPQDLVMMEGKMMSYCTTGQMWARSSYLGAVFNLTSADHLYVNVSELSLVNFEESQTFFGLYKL

B1: TNFSF13 used as analyte in SPR (ligand, human, UniProt O75888 105-250, looked up)
chain: AVLTQKQKKQHSVLHLVPINATSKDDSDVTEVMWQPALRRGRGLQAQGYGVRIQDAGVYLLYSQVLFQDVTFTMGQVVSREGQGRQETLFRCIRSMPSHPDRAYNSCYSAGVFHLHQGDILSVIIPRARAKLNLSPHGTFLGFVKL
notes: TNFSF13 (APRIL), the protein flowed over immobilised FAS in SPR; also called TNSF13; APRIL
B2: FAS immobilised for SPR (receptor, human, UniProt P25445 26-173, looked up)
chain: QVTDINSKGLELRKTVTTVETQNLEGLHHDGQFCHKPCPPGERKARDCTVNGDEPDCVPCQEGKEYTDKAHFSSKCRRCRLCDEGHGLEVEINCTRTQNTKCRCKPNFFCNSTVCEHCDPCTKCEHGIIKECTLTSNTKCKEEGSRSN
notes: FAS receptor, the protein immobilised in SPR; also called FAS receptor

Legend:
FAS immobilised for SPR = biological target: B2; test: SPR; FAS immobilised; TNFSF13 or FASL at various concentrations; sensorgrams fitted to a 1:1 kinetic binding model; n = 3 independent experiments; conditions: both partners purified
[1] = biological target: T1, FAS ligand (FASL) used as analyte in SPR; test: as above; conditions: both partners purified

Kd (FAS immobilised for SPR) | Kd [1] | Binder
60 nM | – | B1
– | 4.09 nM | B2
